According to patent US20260234222A1 (LEYDEN LABORATORIES B V, published 2026):
Read-outs that look alike come from different tables or passages of the source.

B1: Parental mAb 2 (antibody, V domains shown)
VH: QMQLMQSGAEVKKPGASVTVSCKASGDTFSDYRIHWVRQAPGQGLEWMGRMNPKSGDTNFAQKFQGRVTMTRDMSINTAYMTLSGLTFDDTALYYCASLLIVGGFDPLDDFEVWGQGTMVTISS
VL: QSALTQPPSASGSPGQSVTISCSGTSSDVGGYNFVSWYQHHPGKAPKILIYEVTKRPSGVPDRFSGSKSGNTASLTVSGLQAEDEADYYCSSYGGTNNLLFGGGTKLTVL
B2: Bispecific 1 (bispecific antibody)
heavy 1: not shown
light 1: EIVLTQSPGTLSLSPGERATLSCRASQSVRRNYFAWYQQKRGQAPRLLIYDASTRATGIPDRFSGSGSGTDFTLTISRLEPEDFAVYYCQQYDSSPPMYIFGQGTKLEIKSSASTKGPSVFPLAPSSKSTSGGTAALGCLVKDYFPEPVTVSWNSGALTSGVHTFPAVLQSSGLYSLSSVVTVPSSSLGTQTYICNVNHKPSNTKVDKKVEPKSC
heavy 2: not shown
light 2: QSALTQPPSASGSPGQSVTISCSGTSSDVGGYNFVSWYQHHPGKAPKILIYEVTKRPSGVPDRFSGSKSGNTASLTVSGLQAEDEADYYCSSYGGTNNLLFGGGTKLTVLGQPKAAPSVTLFPPSSEELQANKATLVCLISDFYPGAVTVAWKADSSPVKAGVETTTPSKQSNNKYAASSYLSLTPEQWKSHRSYSCQVTHEGSTVEKTVAPTECS
B3: Parental mAb 1 (antibody, V domains shown)
VH: QEQLVQSGAEVKKPGASVKVSCKSSGFTFSYFYLHWVRQAPGQGLEWMGIINPRGDGTRYAQKFQGRVTMTRDASTGTLYMELRSLRSEDTAVYYCARGADHGAFDIWGQGTMVTVSS
VL: EIVLTQSPGTLSLSPGERATLSCRASQSVRRNYFAWYQQKRGQAPRLLIYDASTRATGIPDRFSGSGSGTDFTLTISRLEPEDFAVYYCQQYDSSPPMYIFGQGTKLEIK
notes: also called antibody according to the invention; first parental antibody

Key:
MERS-CoV Spike antigen [1] = molecular target: T1, MERS-CoV Spike antigen (MERS-CoV, UniProt K9N5Q8 18-1291); experiment: cell-based or functional assay
T1 sequence: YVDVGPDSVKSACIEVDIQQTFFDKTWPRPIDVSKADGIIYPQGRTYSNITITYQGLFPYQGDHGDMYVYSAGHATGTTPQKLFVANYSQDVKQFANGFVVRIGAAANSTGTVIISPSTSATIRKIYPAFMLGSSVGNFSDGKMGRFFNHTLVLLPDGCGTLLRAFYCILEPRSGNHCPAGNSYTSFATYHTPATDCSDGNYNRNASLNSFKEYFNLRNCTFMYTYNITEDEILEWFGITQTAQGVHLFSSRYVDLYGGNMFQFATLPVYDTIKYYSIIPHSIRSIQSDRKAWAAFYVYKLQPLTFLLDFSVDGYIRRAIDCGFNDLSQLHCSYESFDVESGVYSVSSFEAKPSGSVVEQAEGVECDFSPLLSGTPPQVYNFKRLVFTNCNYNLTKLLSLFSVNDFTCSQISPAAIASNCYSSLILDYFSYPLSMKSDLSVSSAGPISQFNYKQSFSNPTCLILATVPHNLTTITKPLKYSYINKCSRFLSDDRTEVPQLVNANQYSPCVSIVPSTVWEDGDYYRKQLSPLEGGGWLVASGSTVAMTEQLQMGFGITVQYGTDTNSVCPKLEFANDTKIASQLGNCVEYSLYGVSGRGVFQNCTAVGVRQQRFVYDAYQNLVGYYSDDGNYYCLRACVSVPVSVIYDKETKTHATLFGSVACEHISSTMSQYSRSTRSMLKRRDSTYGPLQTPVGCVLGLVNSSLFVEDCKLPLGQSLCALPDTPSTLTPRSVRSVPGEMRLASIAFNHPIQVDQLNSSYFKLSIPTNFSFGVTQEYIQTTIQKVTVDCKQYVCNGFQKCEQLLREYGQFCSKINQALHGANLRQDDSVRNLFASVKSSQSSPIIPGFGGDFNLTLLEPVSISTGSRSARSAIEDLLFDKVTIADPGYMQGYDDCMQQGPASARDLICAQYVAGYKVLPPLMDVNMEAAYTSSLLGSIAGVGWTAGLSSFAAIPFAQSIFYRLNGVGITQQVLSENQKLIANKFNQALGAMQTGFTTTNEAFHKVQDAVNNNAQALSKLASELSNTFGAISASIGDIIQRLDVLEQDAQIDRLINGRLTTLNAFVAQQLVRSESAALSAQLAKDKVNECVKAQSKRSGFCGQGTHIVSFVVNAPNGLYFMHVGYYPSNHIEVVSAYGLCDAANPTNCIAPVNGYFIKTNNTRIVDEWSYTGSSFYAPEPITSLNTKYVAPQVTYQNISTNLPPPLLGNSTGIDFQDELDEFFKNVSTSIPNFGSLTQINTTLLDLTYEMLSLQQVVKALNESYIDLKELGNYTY

SARS-CoV-1 Spike antigen [2] = molecular target: T2, SARS-CoV-1 Spike antigen (SARS-CoV-1, UniProt P59594 14-1190); experiment: cell-based or functional assay
MERS-CoV Spike antigen [3] = molecular target: T1, MERS-CoV Spike antigen; experiment: cell-based or functional assay; remark: listed apart in the source
SARS-CoV-1 Spike antigen [4] = molecular target: T2, SARS-CoV-1 Spike antigen; experiment: cell-based or functional assay; remark: listed apart in the source
SARS-CoV-2 Spike antigen [5] = molecular target: T3, SARS-CoV-2 Spike antigen (SARS-CoV-2, UniProt P0DTC2 14-1208); experiment: cell-based or functional assay
hCoV-NL63 Spike antigen [6] = molecular target: T4, hCoV-NL63 Spike antigen (hCoV-NL63, UniProt Q6Q1S2 19-1291); experiment: ELISA, Spike antigen coated on plate
T4 construct: also called human coronavirus NL63
T4 sequence: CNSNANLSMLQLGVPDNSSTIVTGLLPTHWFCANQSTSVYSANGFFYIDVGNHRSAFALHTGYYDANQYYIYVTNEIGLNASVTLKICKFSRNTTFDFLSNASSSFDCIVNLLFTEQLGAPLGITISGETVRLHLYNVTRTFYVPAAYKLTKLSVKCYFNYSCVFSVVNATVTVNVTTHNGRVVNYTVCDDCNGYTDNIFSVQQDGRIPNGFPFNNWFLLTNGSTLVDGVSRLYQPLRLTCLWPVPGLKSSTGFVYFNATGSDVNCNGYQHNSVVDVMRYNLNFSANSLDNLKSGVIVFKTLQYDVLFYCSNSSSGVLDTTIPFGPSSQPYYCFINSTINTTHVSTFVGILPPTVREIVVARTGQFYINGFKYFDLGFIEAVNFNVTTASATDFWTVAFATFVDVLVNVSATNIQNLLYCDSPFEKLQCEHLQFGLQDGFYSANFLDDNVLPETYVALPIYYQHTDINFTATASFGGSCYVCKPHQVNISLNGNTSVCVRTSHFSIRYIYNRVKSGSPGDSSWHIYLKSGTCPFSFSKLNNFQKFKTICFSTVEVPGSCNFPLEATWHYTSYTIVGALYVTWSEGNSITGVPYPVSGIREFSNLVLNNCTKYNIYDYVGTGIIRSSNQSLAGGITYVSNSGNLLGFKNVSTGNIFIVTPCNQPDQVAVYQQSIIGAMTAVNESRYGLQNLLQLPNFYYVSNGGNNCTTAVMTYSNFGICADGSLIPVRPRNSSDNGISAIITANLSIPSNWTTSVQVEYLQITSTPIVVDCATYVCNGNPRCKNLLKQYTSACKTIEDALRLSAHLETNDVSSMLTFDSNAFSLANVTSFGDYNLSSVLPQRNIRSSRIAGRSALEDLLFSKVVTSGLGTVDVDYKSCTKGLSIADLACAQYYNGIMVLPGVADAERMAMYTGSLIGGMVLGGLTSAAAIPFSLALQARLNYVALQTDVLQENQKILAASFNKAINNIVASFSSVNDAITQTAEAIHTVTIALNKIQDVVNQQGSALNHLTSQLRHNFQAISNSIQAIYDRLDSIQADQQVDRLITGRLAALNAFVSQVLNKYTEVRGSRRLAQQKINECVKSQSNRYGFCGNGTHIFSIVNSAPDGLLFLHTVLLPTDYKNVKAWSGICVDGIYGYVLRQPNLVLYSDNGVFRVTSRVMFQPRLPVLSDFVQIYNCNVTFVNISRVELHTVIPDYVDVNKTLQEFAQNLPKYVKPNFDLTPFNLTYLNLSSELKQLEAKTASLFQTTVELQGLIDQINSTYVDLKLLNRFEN

SARS-CoV-2 Spike antigen [7] = molecular target: T3, SARS-CoV-2 Spike antigen; experiment: cell-based or functional assay; remark: listed apart in the source
SARS-CoV-2 Spike antigen [8] = molecular target: T3, SARS-CoV-2 Spike antigen; experiment: cell-based or functional assay; remark: listed apart in the source
hCoV-NL63 Spike antigen [9] = molecular target: T4, hCoV-NL63 Spike antigen; experiment: cell-based or functional assay
SARS-CoV-1 Spike antigen [10] = molecular target: T2, SARS-CoV-1 Spike antigen; experiment: cell-based or functional assay; remark: listed apart in the source
SARS-CoV-2 Spike antigen [11] = molecular target: T3, SARS-CoV-2 Spike antigen; experiment: cell-based or functional assay; remark: listed apart in the source

Binder	Live virus neutralization IC50 (MERS-CoV Spike antigen [1]) [µg/mL]	Live virus neutralization IC50 (SARS-CoV-1 Spike antigen [2]) [µg/mL]	Live virus neutralization IC50 (MERS-CoV Spike antigen [3]) [µg/mL]	Live virus neutralization IC50 (SARS-CoV-1 Spike antigen [4]) [µg/mL]	Live virus neutralization IC50 (SARS-CoV-2 Spike antigen [5]) [µg/mL]	binding result (hCoV-NL63 Spike antigen [6])	Pseudovirion neutralization IC50 (SARS-CoV-2 Spike antigen [7]) [µg/mL]	Live virus neutralization IC50 (SARS-CoV-2 Spike antigen [8]) [µg/mL]	Pseudovirion neutralization IC50 (hCoV-NL63 Spike antigen [9]) [µg/mL]	Pseudovirion neutralization IC50 (SARS-CoV-1 Spike antigen [10]) [µg/mL]	Pseudovirion neutralization IC50 (SARS-CoV-2 Spike antigen [11]) [µg/mL]
B1	11.6	5.94									
B2	1.32	6.67									
B3	0.86	4.18	1.49	2.73	9.87	no binding (tested: 10.0-0.000002 nM)	0.072	6.44	> 250	0.588	0.072
